# From publication PMC12556795, “Intrinsically disordered cytoplasmic tail in netrin receptor DCC binds the large ribosomal subunit to inhibit translation” (The Journal of Biological Chemistry, 2025)
# Where no end group is shown, it is not given here.
# B1: DCC C-tail N29+P1 protein (residues 1121-1167) (domain or fragment)
# chain: CTRRSSAQQRKKRATHSAGKRKGSQKDLRPPDLWIHHEEMEMKNIEK
# modifications: also: Cy5 label via maleimide (MST only), 15N-labelled (NMR only)
# notes: Residues 1121-1122 were included to give a terminal cysteine for labelling; also called WT N29+P1; DCC N29-P1; source: E. coli LOBSTR-BL21(DE3), purified (Ni-NTA, Superdex 75)
# Target: Ribosomal protein eL5/uL18 (H. sapiens rpL5) (H. sapiens, UniProt P46777 1-297)
# Assay: NMR titration; 15N-1H HSQC at 25 °C, 35 uM 15N WT N29+P1 or 80 uM KRK→AAA N29+P1 with unlabelled rpL5 at a 1:1 ratio, phosphate buffer pH 6.4 with 5% v/v glycerol; chemical shift perturbations and peak disappearance
# Conditions: both partners purified
binder,measurement,value
B1,binding result,binds
